18 substances from article PMC4022651, “Substitutional Analysis of the C-Terminal Domain of AbrB Revealed Its Essential Role in DNA-Binding Activity” can be followed below.

By stoichiometry N is commonly meant a count of units in the complex or per binding partner.

One assay concerns the target AbrB D62A (B. subtilis). The experiment in a line: SEC; analytical gel filtration (FPLC) on Superdex 75 5/150 GL; running buffer condition I: 50 mM HEPES pH 7.5, 300 mM NaCl, 2 mM β-mercaptoethanol, no glycerol; 100 µl protein applied; 0.2 ml/min; polymeric forms as % of the areas under the curve of all protein peaks. A general note: Size exclusion chromatography separates by hydrodynamic size, large species first.

For assay [1], the target named is AbrB E77A (B. subtilis). The description is as above.
Assay [2] has as its target AbrB E77A (B. subtilis). The experiment in a line: SEC; analytical gel filtration (FPLC) on Superdex 75 5/150 GL; running buffer condition II: 50 mM HEPES pH 7.5, 300 mM NaCl, 2 mM β-mercaptoethanol with 10% glycerol; 60 µl (100 µg) protein applied; 0.2 ml/min; polymeric forms as % of the areas under the curve of all protein peaks.
The target of another assay is AbrB E85A (B. subtilis). Description: SEC; analytical gel filtration (FPLC) on Superdex 75 5/150 GL; running buffer condition I: 50 mM HEPES pH 7.5, 300 mM NaCl, 2 mM β-mercaptoethanol, no glycerol; 100 µl protein applied; 0.2 ml/min; polymeric forms as % of the areas under the curve of all protein peaks.
Assay [3] concerns the target AbrB K71A (B. subtilis). Described as above.
Assay [4] addresses AbrB K71A (B. subtilis). Description: SEC; analytical gel filtration (FPLC) on Superdex 75 5/150 GL; running buffer condition II: 50 mM HEPES pH 7.5, 300 mM NaCl, 2 mM β-mercaptoethanol with 10% glycerol; 60 µl (100 µg) protein applied; 0.2 ml/min; polymeric forms as % of the areas under the curve of all protein peaks.
Another assay deals with AbrB K76A (B. subtilis). Description: SEC; analytical gel filtration (FPLC) on Superdex 75 5/150 GL; running buffer condition I: 50 mM HEPES pH 7.5, 300 mM NaCl, 2 mM β-mercaptoethanol, no glycerol; 100 µl protein applied; 0.2 ml/min; polymeric forms as % of the areas under the curve of all protein peaks.
The target of a further assay is AbrB K94A (B. subtilis). The assay is described as above.
The target in assay [5] is AbrB K94I (B. subtilis). Described as above.
In assay [6] the target is AbrB K94I (B. subtilis). Description: SEC; analytical gel filtration (FPLC) on Superdex 75 5/150 GL; running buffer condition II: 50 mM HEPES pH 7.5, 300 mM NaCl, 2 mM β-mercaptoethanol with 10% glycerol; 60 µl (100 µg) protein applied; 0.2 ml/min; polymeric forms as % of the areas under the curve of all protein peaks.
The target in another assay is AbrB N88A (B. subtilis). The experiment in a line: SEC; analytical gel filtration (FPLC) on Superdex 75 5/150 GL; running buffer condition I: 50 mM HEPES pH 7.5, 300 mM NaCl, 2 mM β-mercaptoethanol, no glycerol; 100 µl protein applied; 0.2 ml/min; polymeric forms as % of the areas under the curve of all protein peaks.
Another assay deals with AbrB N88D (B. subtilis). Described as above.
The target in the next assay is AbrB Q55A (B. subtilis). The description is as above.
The target in assay [7] is AbrB Q55E (B. subtilis). Described as above.
Assay [8] has as its target AbrB Q55E (B. subtilis). The experiment in a line: SEC; analytical gel filtration (FPLC) on Superdex 75 5/150 GL; running buffer condition II: 50 mM HEPES pH 7.5, 300 mM NaCl, 2 mM β-mercaptoethanol with 10% glycerol; 60 µl (100 µg) protein applied; 0.2 ml/min; polymeric forms as % of the areas under the curve of all protein peaks.
For another assay, the target named is AbrB Q81A (B. subtilis). The experiment in a line: SEC; analytical gel filtration (FPLC) on Superdex 75 5/150 GL; running buffer condition I: 50 mM HEPES pH 7.5, 300 mM NaCl, 2 mM β-mercaptoethanol, no glycerol; 100 µl protein applied; 0.2 ml/min; polymeric forms as % of the areas under the curve of all protein peaks.
The target of the next assay is AbrB Q87A (B. subtilis). The assay is described as above.
The target in the next assay is AbrB Q89A (B. subtilis). Described as above.
For assay [9], the target named is AbrBQ81E (B. subtilis). Described as above.
In assay [10] the target is AbrBQ81E (B. subtilis). The experiment in a line: SEC; analytical gel filtration (FPLC) on Superdex 75 5/150 GL; running buffer condition II: 50 mM HEPES pH 7.5, 300 mM NaCl, 2 mM β-mercaptoethanol with 10% glycerol; 60 µl (100 µg) protein applied; 0.2 ml/min; polymeric forms as % of the areas under the curve of all protein peaks.
For assay [11], the target named is AbrBQ81K, identical with the AbrB of B. amyloliquefaciens FZB45 (B. subtilis (with Q81K: B. amyloliquefaciens FZB45)). Description: SEC; analytical gel filtration (FPLC) on Superdex 75 5/150 GL; running buffer condition I: 50 mM HEPES pH 7.5, 300 mM NaCl, 2 mM β-mercaptoethanol, no glycerol; 100 µl protein applied; 0.2 ml/min; polymeric forms as % of the areas under the curve of all protein peaks.

Assay [12] deals with AbrBR15A (B. subtilis). The assay is described as above.
Assay [13] has as its target AbrBR15A (B. subtilis). The experiment in a line: SEC; analytical gel filtration (FPLC) on Superdex 75 5/150 GL; running buffer condition II: 50 mM HEPES pH 7.5, 300 mM NaCl, 2 mM β-mercaptoethanol with 10% glycerol; 60 µl (100 µg) protein applied; 0.2 ml/min; polymeric forms as % of the areas under the curve of all protein peaks.
Assay [14] addresses wild-type AbrB of B. subtilis 168 (His6-AbrB) (B. subtilis). Description: SEC; analytical gel filtration (FPLC) on Superdex 75 5/150 GL; running buffer condition I: 50 mM HEPES pH 7.5, 300 mM NaCl, 2 mM β-mercaptoethanol, no glycerol; 100 µl protein applied; 0.2 ml/min; polymeric forms as % of the areas under the curve of all protein peaks.
For assay [15] the target is unchanged. The experiment in a line: SEC; analytical gel filtration (FPLC) on Superdex 75 5/150 GL; running buffer condition II: 50 mM HEPES pH 7.5, 300 mM NaCl, 2 mM β-mercaptoethanol with 10% glycerol; 60 µl (100 µg) protein applied; 0.2 ml/min; polymeric forms as % of the areas under the curve of all protein peaks.

Regarding AbrB D62A (natural protein), in the assay with AbrB D62A (B. subtilis), the % of the protein (AUC) in the form with n 4.1 came to 94% and the % of the protein (AUC) in the form with n 8.2 is 6%.
AbrB E77A (natural protein): in the assay with AbrB E77A (B. subtilis) [1], the % of the protein (AUC) in the form with n 4.1 turned out to be 83% and the % of the protein (AUC) in the form with n 8.2 was 17%. For the same substance, in the assay with AbrB E77A (B. subtilis) [2], the % of the protein (AUC) in the form with n 4.7 came to 94% and the % of the protein (AUC) in the form with n 55.5 was 6%.
In the case of AbrB E85A (natural protein), in the assay with AbrB E85A (B. subtilis), the % of the protein (AUC) in the form with n 4.0 turned out to be 98% and the % of the protein (AUC) in the form with n 8.2 was 2%.
In the assay with AbrB K71A (B. subtilis) [3], AbrB K71A (natural protein) displayed a % of the protein (AUC) in the form with n 4.3 of 86% and a % of the protein (AUC) in the form with n 8.5 of 14%. In the assay with AbrB K71A (B. subtilis) [4], the % of the protein (AUC) in the form with n 3.9 is > 95% and the stoichiometry N worked out at 3.9.
AbrB K76A (natural protein): in the assay with AbrB K76A (B. subtilis), the % of the protein (AUC) in the form with n 4.0 was > 95% and the stoichiometry N is 4.
In the assay with AbrB K94A (B. subtilis), AbrB K94A (natural protein) gave a % of the protein (AUC) in the form with n 4.1 of 93% and a % of the protein (AUC) in the form with n 8.2 of 7%.
For AbrB K94I (natural protein), in the assay with AbrB K94I (B. subtilis) [5], the % of the protein (AUC) in the form with n 4.7 was determined as 65.6%, the % of the protein (AUC) in the form with n 13.6 turned out to be 34.4% and the % of the protein in larger polymeric forms was < 30%. Moreover, in the assay with AbrB K94I (B. subtilis) [6], the % of the protein (AUC) in the form with n 4.1 was > 95% and the stoichiometry N came to 4.1.
In the case of AbrB N88A (natural protein), in the assay with AbrB N88A (B. subtilis), the % of the protein (AUC) in the form with n 4.5 stood at 91% and the % of the protein (AUC) in the form with n 8.1 was found to be 9%.
As to AbrB N88D (natural protein), in the assay with AbrB N88D (B. subtilis), the % of the protein (AUC) in the form with n 4.1 amounted to 93% and the % of the protein (AUC) in the form with n 8.3 was 8%.
In the assay with AbrB Q55A (B. subtilis), AbrB Q55A (natural protein) registered a % of the protein (AUC) in the form with n 3.9 of 92% and a % of the protein (AUC) in the form with n 8.1 of 8%.
In the assay with AbrB Q55E (B. subtilis) [7], AbrB Q55E (natural protein) had a % of the protein (AUC) in the form with n 4.3 of 49% and a % of the protein (AUC) in the form with n 12.3 of 51%. In the assay with AbrB Q55E (B. subtilis) [8], the % of the protein (AUC) in the form with n 3.8 was > 95% and the stoichiometry N stood at 3.8.
In the assay with AbrB Q81A (B. subtilis), AbrB Q81A (natural protein) had a % of the protein (AUC) in the form with n 4.4 of 94% and a % of the protein (AUC) in the form with n 8.5 of 6%.
In the assay with AbrB Q87A (B. subtilis), AbrB Q87A (natural protein) displayed a % of the protein (AUC) in the form with n 4.5 of 93% and a % of the protein (AUC) in the form with n 8.1 of 7%.
For AbrB Q89A (natural protein), in the assay with AbrB Q89A (B. subtilis), the % of the protein (AUC) in the form with n 4.8 amounted to 93% and the % of the protein (AUC) in the form with n 8.1 was determined as 7%.
In the case of AbrBQ81E (natural protein), in the assay with AbrBQ81E (B. subtilis) [9], the % of the protein (AUC) in the form with n 3.9 is 78% and the % of the protein (AUC) in the form with n 8.1 was determined as 22%. Besides, in the assay with AbrBQ81E (B. subtilis) [10], the % of the protein (AUC) in the form with n 4.1 was > 95% and the stoichiometry N came to 4.1.
Take “AbrBQ81K, identical with the AbrB of B. amyloliquefaciens FZB45 (natural protein)”: in assay [11], the % of the protein (AUC) in the form with n 4.0 was > 95% and the stoichiometry N came to 4.
In the assay with AbrBR15A (B. subtilis) [12], AbrBR15A (natural protein) showed a % of the protein (AUC) in the form with n 4.1 of 57.5% and a % of the protein (AUC) in the form with n 8.0 of 42.5%. Also, in the assay with AbrBR15A (B. subtilis) [13], the % of the protein (AUC) in the form with n 40.4 was determined as 10% and the % of the protein (AUC) in the forms with 12< n >1 is 90%.
As for “wild-type AbrB of B. subtilis 168 (His6-AbrB) (natural protein)”, in assay [14], the % of the protein (AUC) in the form with n 4.1 turned out to be 87% and the % of the protein (AUC) in the form with n 8.2 came out at 13%. Further, in [15], the % of the protein (AUC) in the form with n 4.8 was > 95% and the stoichiometry N was found to be 4.8.
